{"source": "paper PMC5533101", "about": "(Journal of Alzheimer's disease : JAD, 2004)", "target": "AβO(1-42), oligomeric non-fibrillar Aβ prepared from the peptide Aβ_(1-42) (UniProt P05067 672-713)", "test": "SPR"}
{"binder": "TR#2, recombinant TR segment containing the extracellular domain (ectodomain) (domain or fragment, UniProt Q9UIK5 56-301, looked up) CSGYDDRENDLFLCDTNTCKFDGECLRIGDTVTCVCQFKCNNDYVPVCGSNGESYQNECYLRQAACKQQSEILVVSEGSCATDAGSGSGDGVHEGSGETSQKETSTCDICQFGAECDEDAEDVWCVCNIDCSQTNFNPLCASDGKSYDNACQIKEASCQKQEKIEVMSLGRCQDNTTTTTKSEDGHYARTDYAENANKLEESAREHHIPCPEHYNGFCMHGKCEHSINMQEPSCRCDAGYTGQHCE", "values": [{"measurement": "Kd", "value": 76.8, "unit": "nM"}]}
